Laboratory results taken from patent publication US7569390 (MEDICAL RESEARCH COUNCIL, dated 2009).

Molecular target: T1, Syk/BTM116 (LexA-Syk bait) (E. coli, UniProt P48025 1-629)
T1 construct: also called pLexA-Syk; not shown: E. coli LexA domain of vector pBTM116
Assay: yeast two-hybrid (L40), β-galactosidase assay; FIG. 2B row 2, empty pVP16 control

T1 sequence (P48025 whole entry, the tested form may be a part): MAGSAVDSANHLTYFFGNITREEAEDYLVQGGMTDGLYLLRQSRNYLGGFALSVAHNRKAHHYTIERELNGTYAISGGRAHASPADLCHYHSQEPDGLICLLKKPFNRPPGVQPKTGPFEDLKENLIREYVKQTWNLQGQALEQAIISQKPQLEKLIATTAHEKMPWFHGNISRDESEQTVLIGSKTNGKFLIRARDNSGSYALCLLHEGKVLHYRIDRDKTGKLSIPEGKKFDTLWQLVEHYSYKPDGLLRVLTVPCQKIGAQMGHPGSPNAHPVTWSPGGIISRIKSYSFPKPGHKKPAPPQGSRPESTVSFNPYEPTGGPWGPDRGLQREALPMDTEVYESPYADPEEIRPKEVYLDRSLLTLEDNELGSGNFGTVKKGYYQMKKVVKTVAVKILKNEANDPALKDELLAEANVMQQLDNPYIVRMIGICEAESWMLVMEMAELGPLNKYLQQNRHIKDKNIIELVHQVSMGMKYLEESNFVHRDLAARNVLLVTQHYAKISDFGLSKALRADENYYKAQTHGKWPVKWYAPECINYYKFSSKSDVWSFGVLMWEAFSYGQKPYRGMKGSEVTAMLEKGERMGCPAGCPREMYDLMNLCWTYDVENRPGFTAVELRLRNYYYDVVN

B1: VP16 vector alone (pVP16, no scFv insert) (other)
chain: STAPPTDVSLGDELHLDGEDVAMAHADALDDFDLDMLGDGDSPGPGFTPHDSAPYGALDMADFEFEQMFTDALGIDEYGG
notes: also called empty pVP16 vector
Does B1 bind?
Result: no binding
